We go through 7 molecules from patent US20240117047A1 (University of California, published 2024).

Changes are numbered by the printed parent chain.

In experiment [1] the target is T1, extracellular domain of mouse ROR1 (mouse, UniProt Q9Z139 30-406).
T1 construct: also called mROR1; mROR1 protein
The experiment is described as follows: blot of recombinant protein, non-denaturing gel. An excerpt: (§1) Schematics of the chimeric constructs of the extracellular portion of ROR1 used to map the domain of hROR1 bound by each of the mAb in this disclosure. The dark regions of each construct indicate hROR1, light portions denote regions of mROR1, and hatched portions indicate deleted regions. Arrows mark the boundaries between the mouse and hROR1 regions for constructs #5, #6, #13 and #14, which depict the first 160 amino acids of the extracellular region that includes the Ig-like domain. The amino acids that differ between human and mROR1 are indicated by the single letter abbreviation at that position. (B) Each of these recombinant proteins were separated in non-denaturing polyacrylamide gel, transferred onto nylon, probed with the anti-hROR1 mAb indicated on the left, and detected with an anti-mouse IgG antibody conjugated with horse radish peroxidase. […] None of the antibody bind to mROR1.

Experiment [2] deals with T2, hROR1 with a single amino acid substitution at position 138 (glutamic acid to lysine) (human, UniProt Q01973 30-406).
T2 construct: Recombinant mutant of the hROR1 extracellular domain; also called hROR1 E138K
Put plainly: binding to point-mutated hROR1.

For experiment [3], the target named is T3, extracellular domain of human ROR1 (human, UniProt Q01973 30-406).
T3 construct: also called hROR1; hROR1 extracellular recombinant protein
Put plainly: ELISA screening. In general terms: In an ELISA, binding on a coated surface is turned into a signal by an enzyme label.

The target of experiment [4] is T4, hROR1 with a single amino acid substitution at position 346 (threonine to serine) (human, UniProt Q01973 30-406).
T4 construct: Recombinant mutant of the hROR1 extracellular domain; also called hROR1 T346S
The experiment is described as follows: binding to point-mutated hROR1; blot in FIG. 6. From the text: Neither of the antibody reacts with mROR1 protein. […] We generated recombinant hROR1 proteins having either the mouse or human amino acid residue at this position only.

Experiment [5] has as its target T3, extracellular domain of human ROR1. Put plainly: blot, non-denaturing gel.
Source text: as §1

The target of experiment [6] is T4, hROR1 with a single amino acid …. The experiment is described as follows: binding to point-mutated hROR1.

T2 sequence (Q01973 30-406 E138K limits assumed): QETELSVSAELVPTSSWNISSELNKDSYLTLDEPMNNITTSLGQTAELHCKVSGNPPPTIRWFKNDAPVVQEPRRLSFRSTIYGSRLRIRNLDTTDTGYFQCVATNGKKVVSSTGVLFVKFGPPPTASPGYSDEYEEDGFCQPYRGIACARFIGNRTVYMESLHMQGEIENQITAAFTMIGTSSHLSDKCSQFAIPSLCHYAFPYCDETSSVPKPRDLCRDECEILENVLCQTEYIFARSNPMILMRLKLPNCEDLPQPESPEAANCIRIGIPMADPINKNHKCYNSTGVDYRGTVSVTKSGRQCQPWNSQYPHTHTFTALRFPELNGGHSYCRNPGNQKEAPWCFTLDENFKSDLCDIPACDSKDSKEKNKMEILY
T3 sequence (Q01973 30-406 limits assumed): as the sequence (Q01973 30-406 E138K limits assumed) above, with K109E counted along it
T1 sequence (Q9Z139 30-406 limits assumed): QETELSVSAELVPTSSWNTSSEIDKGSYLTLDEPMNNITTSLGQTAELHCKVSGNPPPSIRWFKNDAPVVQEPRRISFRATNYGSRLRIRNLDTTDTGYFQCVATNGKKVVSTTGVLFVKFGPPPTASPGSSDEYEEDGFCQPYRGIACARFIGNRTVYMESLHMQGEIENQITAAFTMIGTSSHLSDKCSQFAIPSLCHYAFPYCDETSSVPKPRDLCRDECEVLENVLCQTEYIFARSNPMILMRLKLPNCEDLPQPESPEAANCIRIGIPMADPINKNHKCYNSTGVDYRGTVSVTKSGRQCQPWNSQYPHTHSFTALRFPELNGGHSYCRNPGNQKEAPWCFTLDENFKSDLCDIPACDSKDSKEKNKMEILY
T4 sequence (Q01973 30-406 T346S limits assumed): as the sequence (Q01973 30-406 E138K limits assumed) above, with K109E, T317S counted along it

B1: UC-102 (antibody, V domains shown)
VH: DVHLQESGPGLVKPSQSLSVTCTVTGYSITGSYSWNWIRQFPGNKLEWMGYIHSSGTTNYNPSLKSRISFTRDTSKNQLFLQLNSVTTEDTATYYCTRGFAYWGQGTLVTVSA
VL: NIVMTQSPSSMSASLGDRITITCQATQDIVKNLNWYQQKPGKPPSFLIYYTTELAEGVPSRFSGSGSGSDYSLTISNLESEDFADYYCLQFYEFPPTFGAGTKLELKR
notes: Mouse-derived anti-hROR1 mAb, detected with anti-mouse IgG; also called UC-102 mAb
B1: the binding result in experiment [1] is on record as “no binding”; in experiment [2] it was “no binding”; in experiment [3], “binds”.

B2: UC-101 (antibody, V domains shown)
VH: EVQLLETGGGLVQPGGSRKLSCVASGFSFSSYGMHWVRQAPEKGLEWVAYIGGTSNTIYFADTVKGRFTISRDNAKNTLFLQMASLRSEDTAMYYCARTNLLGMDYWGQGTSVTVSS
VL: QIVLTQSPTIMSASPGEKVTMTCSASSSVSDMYWYQQKPGSSPRLLIYDTSNLASGVPVRFSGSGSGTSYSLTISRMEAEDAATYYCQQWISYTFGGGTKLEIKR
notes: Mouse-derived anti-hROR1 mAb, detected with anti-mouse IgG; also called UC-101 mAb
On to B2, for which the figures for the binding result in experiment [1], in experiment [2] and in experiment [3] were “no binding”, “no binding” and “binds”, respectively.

B3: UC-106 (antibody, V domains shown)
VH: QIQLVQSGPELKKPGETVKISCKASGYTFTYYPIHWVKQAPGKGLKWMGWINTYSGVPTYADDFKGRFAFSLETSANTAYLQINNLRNEDMATYFCARGDSSLFDYWGQGTTLTVSS
VL: GHQMTQSPSSLSASLGERVSLTCRASQEISGYLIWLQQKPDGTIKRLIYAASTLNSGVPKRFSGSRSGSDYSLTISSLESEDFADYYCLQYTSYPLTFGAGTKLELKR
notes: Mouse-derived anti-hROR1 mAb, detected with anti-mouse IgG
For B3, the values for the binding result in experiment [1], in experiment [4] and in experiment [5] were “no binding”, “no binding” and “binds”, respectively.

B4: UC-107 (antibody, V domains shown)
VH: B3 VH with Y31N, I83L
VL: B3 VL with G1D, H2V, T5I, K45T, N55D
notes: Mouse-derived anti-hROR1 mAb, detected with anti-mouse IgG; also called UC-107 mAb
With B4, the binding result is “no binding” in experiment [1], “no binding” in experiment [6] and “binds” in experiment [3].

B5: UC-103 (antibody, V domains shown)
VH: EIQLQQSGPVLVKPGASVKVSCKASGYAFTAYNIHWVRQSHGKRLEWIGSFDPYDGGSSYNQKFKDKATLTVDKSSTTAYMHLNSLTSEDSAVYYCARGWYYFDYWGHGTTLTVSS
VL: DVQITQSPSYLAASPGETITINCRASKSISKYLAWYQEKPGKTNKLLIYSGSTLQSGIPSRFRGSGSGTDFTLTISSLEPEDFAMYYCQQHDESPYTFGEGTKLEIKR
notes: Mouse-derived anti-hROR1 mAb, detected with anti-mouse IgG; also called UC-103 mAb
Turning to B5, the binding result in experiment [1] is on record as “no binding”; in experiment [2] it was “no binding”; in experiment [3] it was “binds”.

B6: UC-104 (antibody, V domains shown)
VH: EVQLLETGGGLVQPGGSRKLSCAASGFTFSNYGMHWVRQAPGKGLEWVAHISRYSDTIYYADAVKGRFTISRDNAKNTLFLQMTTLRSEDTAIYYCTSAMDYWGQGTSVTVSS
VL: DIQMTQTTSSLSASLGDRVTISCRASQDISNYLNWFQQKPDGTIKLLIYYTSRLHSGVPSRFSGSGSGTDYSLTISNLEQEDIATYFCQQGNTLPFTFGSGTKLEIKR
notes: Mouse-derived anti-hROR1 mAb, detected with anti-mouse IgG; also called UC-104 mAb
As to B6, the results for the binding result in experiment [1], in experiment [2] and in experiment [3] were “no binding”, “no binding” and “binds”, respectively.

B7: UC-105 (antibody, V domains shown)
VH: EVKLVESGGGLVQPGGSRKLSCAASGFTFSSYGMHWIRQTPDKGLEWVAYISSNSDHIFYTDTVKGRFTISRDNAKNTLFLQMTSLRSEDTAMYYCASRMDYWGQGTSVTVSS
VL: B6 VL with Y32H, F36Y, I44V, E81G, N92S, F96Y, S100G
notes: as for B3
With B7, the binding result in experiment [1] is “no binding”; in experiment [2], “no binding”; in experiment [3] it was “binds”.
